Common to all, as to assay: cell-based or functional assay
Assay [1] concerns the target T1, human GIP receptor (human) (UniProt P48546).
T1 sequence (looked up): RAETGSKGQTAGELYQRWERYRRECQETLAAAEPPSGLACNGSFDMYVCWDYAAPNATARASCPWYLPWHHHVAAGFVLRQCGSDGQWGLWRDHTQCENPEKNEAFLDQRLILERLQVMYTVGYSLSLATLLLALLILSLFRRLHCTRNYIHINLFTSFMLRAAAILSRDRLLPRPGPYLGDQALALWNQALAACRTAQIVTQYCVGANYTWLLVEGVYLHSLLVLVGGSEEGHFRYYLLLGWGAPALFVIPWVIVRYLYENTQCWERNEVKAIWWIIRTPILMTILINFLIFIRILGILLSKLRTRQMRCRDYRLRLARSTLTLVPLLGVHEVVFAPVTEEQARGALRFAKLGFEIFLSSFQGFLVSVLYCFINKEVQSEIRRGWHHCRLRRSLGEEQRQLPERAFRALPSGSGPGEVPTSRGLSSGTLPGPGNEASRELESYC

Assay [2] has as its target hGLP-1R (Homo sapiens, UniProt P43220).
Assay [3] deals with human glucagon receptor (human) (UniProt P47871).

The values that follow come from patent US20240270821A1, “GIP/GLP1/GCG TRI-RECEPTOR AGONISTS AND USES THEREOF” (priority 2023, published 2024).

Starred links: 1 amine or outer side, 2 acyl side, 3 side chain; linkers in the order of their positions; H or OH if unused. Non-standard residues stand in square brackets, D forms with d. Groups on a side chain read outwards from the residue. No end group written: not given here. *: point of attachment. C18 diacid = O=C(O)CCCCCCCCCCCCCCCCC(=O)*; γGlu = O=C(O)[C@H](CCC(=O)[*:2])N[*:1]; αMe4Pal = C[C@](N)(Cc1ccncc1)C(=O)O; 4Pal = N[C@@H](Cc1ccncc1)C(=O)O; αMeL = CC(C)C[C@](C)(N)C(=O)O; Orn = NCCC[C@H](N)C(=O)O; Aib = CC(C)(N)C(=O)O

hGLP-1R, sequence (P43220 24-463): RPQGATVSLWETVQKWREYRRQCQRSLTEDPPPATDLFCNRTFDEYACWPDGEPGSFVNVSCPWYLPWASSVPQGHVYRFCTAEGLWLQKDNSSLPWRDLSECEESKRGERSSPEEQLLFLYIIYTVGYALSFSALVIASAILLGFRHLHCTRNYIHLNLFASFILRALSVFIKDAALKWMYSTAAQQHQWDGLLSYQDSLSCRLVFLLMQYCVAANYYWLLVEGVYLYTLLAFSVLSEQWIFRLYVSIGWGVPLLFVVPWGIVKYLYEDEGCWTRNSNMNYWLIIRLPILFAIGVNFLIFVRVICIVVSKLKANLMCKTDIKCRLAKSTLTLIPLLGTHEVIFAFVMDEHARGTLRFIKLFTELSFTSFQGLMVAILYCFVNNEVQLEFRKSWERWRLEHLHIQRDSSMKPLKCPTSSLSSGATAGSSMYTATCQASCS
human glucagon receptor (human), sequence (P47871 26-477): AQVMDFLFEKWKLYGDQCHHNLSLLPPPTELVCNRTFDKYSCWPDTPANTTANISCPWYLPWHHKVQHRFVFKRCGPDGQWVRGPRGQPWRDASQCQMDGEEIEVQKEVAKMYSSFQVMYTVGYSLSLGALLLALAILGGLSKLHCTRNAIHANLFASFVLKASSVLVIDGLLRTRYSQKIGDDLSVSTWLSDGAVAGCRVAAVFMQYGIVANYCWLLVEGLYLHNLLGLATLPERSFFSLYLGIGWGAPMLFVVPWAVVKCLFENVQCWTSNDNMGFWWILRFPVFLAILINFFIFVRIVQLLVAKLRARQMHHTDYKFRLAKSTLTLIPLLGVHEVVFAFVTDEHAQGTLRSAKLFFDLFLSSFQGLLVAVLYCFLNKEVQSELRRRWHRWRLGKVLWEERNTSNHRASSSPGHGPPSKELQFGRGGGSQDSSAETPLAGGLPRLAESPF

B1: Example 1038 (peptide)
chain: YXQGTFTSDFSQXLDXKAQXAFIEYLLEAGPSSGAPPPSGSEEE
modifications: synthetic construct; SITE 2: note = 2-Aminoisobutyric Acid; SITE 13: note = alpha-methyl-leucine; SITE 16: note = L-ornithine; SITE 17: note = Lysine is chemically modified through conjugation of the epsilon-amino group of the Lysine side chain with (2-[2-(2-Amino-ethoxy)-ethoxy]-acetyl)-(gamma-Glu)
Regarding B1, the Relative cAMP EC50 worked out at 0.134 nM in assay [1], 1.45 nM in assay [2] and 5.93 nM in assay [3]. Also, the cAMP Rel EC50, nM (1% HSA) in assay [1] was 29.8 nM; in assay [2] it was 349 nM; in assay [3] it was 1300 nM.

B2: Example 1040 (peptide)
chain: YXQGTFTSDFSQXLDXKAQXAFIEXLLEAGPSSGAPPPSGSEEE
modifications: Aib, αMeL, Orn, Me4Pal; acylated K; C-terminal amide; synthetic construct; SITE 2: note = 2-Aminoisobutyric Acid; SITE 13: note = alpha-methyl-leucine; SITE 16: note = L-ornithine; SITE 17: note = Lysine is chemically modified through conjugation of the epsilon-amino group of the Lysine side chain with (gamma-Glu)2-CO-(CH2)16-CO2H; SITE 20: note = 2-Am
With B2, the cAMP Rel EC50, nM (1% HSA) in assay [1] was found to be 20.8 nM; in assay [2], 322 nM; in assay [3] it was 2020 nM.

B3: Example 1039 (peptide)
chain: YXQGTFTSDFSQXLDXKAQXAFIEYLLEAGPSSGAPPPSGSEEE
modifications: not fully specified; synthetic construct; SITE 2: note = 2-Aminoisobutyric Acid; SITE 13: note = alpha-methyl-leucine; SITE 16: note = L-ornithine; SITE 17: note = Lysine is chemically modified through conjugation of the epsilon-amino group of the Lysine side chain with (gamma-Glu)2-CO-(CH2)16-CO2H; SITE 20: note = 2-Am
For B3, the Relative cAMP EC50 in assay [1] amounted to 0.118 nM; in assay [2], 1.65 nM; in assay [3], 7.46 nM. For the same molecule, the cAMP Rel EC50, nM (1% HSA) in assay [1] is 26.8 nM; in assay [2] it was 413 nM; in assay [3], 2020 nM.

B4: Example 6 (peptide)
chain: YXQGTFTSDFSKXLDKKAQXAFIEYLLAGGPSSGEPPPSGG
modifications: Aib, αMeL; Lys acylated; C-terminal amide; synthetic construct; SITE 2: note = 2-Aminoisobutyric Acid; SITE 13: note = alpha-methyl-leucine; SITE 17: note = Lysine is chemically modified through conjugation of the epsilon-amino group of the Lysine side chain with (2-[2-(2-Amino-ethoxy)-ethoxy]-acetyl)-(gamma-Glu)-CO-(CH2) 18-CO2H; SITE 20: n
For B4, the Relative cAMP EC50 was found to be 0.232 nM in assay [1], 1.95 nM in assay [2] and 6.89 nM in assay [3]. Further, the cAMP Rel EC50 (in the presence of 1% HSA) turned out to be 46.6 nM in assay [1], 446 nM in assay [2] and 1380 nM in assay [3].

Take Y[Aib]QGTFTSD[4Pal]SQ[αMeL]LD[Orn]KK([Glu-γGlu-C18 diacid])AQ[αMe4Pal]AFIEYLIAGGPSSGAPPPSGSEE-NH2 [Example 1032]: the cAMP Rel EC50, nM (1% HSA) in assay [1] amounted to 21.9 nM; in assay [2], 148 nM; in assay [3], 900 nM.

B5: Example 1013 (peptide)
chain: YXQGTFTSDXSXXLDXKAQXAFIEXLIEGGPSSGAPPPSGS
modifications: Aib, 4Pal, Orn, αMeL, Me4Pal, αMeY, (γGlu)2-C18 diacid, amide; synthetic construct; SITE 2: note = 2-Aminoisobutyric Acid; SITE 10: note = 3-(4-Pyridyl)-L-alanine; SITE 12: note = L-ornithine; SITE 13: note = alpha-methyl-leucine; SITE 16: note = L-ornithine; SITE 17: note = Lysine is chemically modified through conjugation of the epsilon-amino group of the Lys
On to B5, for which the figures for the cAMP Rel EC50, nM (1% HSA) in assay [1], in assay [2] and in assay [3] were 22.6 nM, 137 nM and 285 nM, respectively.

B6: Example 1014 (peptide)
chain: YXQGTFTSDXSXXLDKKAQXAFIEXLIAGGPSSGEPPPSGS
modifications: Aib, 4Pal, Orn, αMeL, Me4Pal, αMeY; γGlu2-C18 diacid Lys; amide; synthetic construct; SITE 2: note = 2-Aminoisobutyric Acid; SITE 10: note = 3-(4-Pyridyl)-L-alanine; SITE 12: note = L-ornithine; SITE 13: note = alpha-methyl-leucine; SITE 17: note = Lysine is chemically modified through conjugation of the epsilon-amino group of the Lysine side chain with (gamma-Gl)
Consider B6, for which the Relative cAMP EC50 in assay [1] was 0.0412 nM; in assay [2], 0.718 nM; in assay [3], 3.62 nM. Moreover, the cAMP Rel EC50, nM (1% HSA) in assay [1] amounted to 5.62 nM; in assay [2], 86.4 nM; in assay [3] it was 277 nM.

B7: Example 1016 (peptide)
chain: YXQGTFTSDXSQXLDXKAQXAFIEYLIEAGPSSGAPPPSGS
modifications: not fully specified; Aib, 4Pal, αMeL, Orn, Me4Pal, D-Ala; acylated Lys; C-terminal amide; synthetic construct; SITE 2: note = 2-Aminoisobutyric Acid; SITE 10: note = 3-(4-Pyridyl)-L-alanine; SITE 13: note = alpha-methyl-leucine; SITE 16: note = L-ornithine; SITE 17: note = Lysine is chemically modified through conjugation of the epsilon-amino group of the Lysine side chain with (2-[2-(2-
For the molecule B7, the cAMP Rel EC50, nM (1% HSA) in assay [1] was 30.6 nM; in assay [2], 156 nM; in assay [3], 626 nM.

B8: Example 1019 (peptide)
chain: YXQGTFTSDXSQXLDXKAQXAFIEYLIEAGPSSGEPPPSGS
modifications: not fully specified; non-natural residues, (γGlu)2-C18 diacid lysine acylation, C-terminal amide; synthetic construct; SITE 2: note = 2-Aminoisobutyric Acid; SITE 10: note = 3-(4-Pyridyl)-L-alanine; SITE 13: note = alpha-methyl-leucine; SITE 16: note = L-ornithine; SITE 17: note = Lysine is chemically modified through conjugation of the epsilon-amino group of the Lysine side chain with (gamma-Gl)
Regarding B8, the Relative cAMP EC50 stood at 0.169 nM in assay [1], 1.33 nM in assay [2] and 4.36 nM in assay [3]. Further, the cAMP Rel EC50, nM (1% HSA) was 21.3 nM in assay [1], 161 nM in assay [2] and 579 nM in assay [3].

B9: Example 1015 (peptide)
chain: YXQGTFTSDXSXXLDKKAQXAFIEXLIAGGPSSGAPPPEGS
modifications: non-natural residues (Aib, 4Pal, Orn, Me4Pal, αMeY); lipidated K; amide; synthetic construct; SITE 2: note = 2-Aminoisobutyric Acid; SITE 10: note = 3-(4-Pyridyl)-L-alanine; SITE 12: note = L-ornithine; SITE 13: note = alpha-methyl-leucine; SITE 17: note = Lysine is chemically modified through conjugation of the epsilon-amino group of the Lysine side chain with (gamma-Gl)
Turning to B9, the cAMP Rel EC50, nM (1% HSA) in assay [1] came out at 9.08 nM; in assay [2], 92.4 nM; in assay [3], 357 nM.

B10: Example 1017 (peptide)
chain: YXQGTFTSDXSQXLDXKAQXAFIEYLIEAGPSSGAPPPSGS
modifications: not fully specified; Aib, 4Pal, αMeL, Orn, Me4Pal, D-Ala; acylated Lys; amide; synthetic construct; SITE 2: note = 2-Aminoisobutyric Acid; SITE 10: note = 3-(4-Pyridyl)-L-alanine; SITE 13: note = alpha-methyl-leucine; SITE 16: note = L-ornithine; SITE 17: note = Lysine is chemically modified through conjugation of the epsilon-amino group of the Lysine side chain with (gamma-Gl)
Consider B10, for which the values for the cAMP Rel EC50, nM (1% HSA) in assay [1], in assay [2] and in assay [3] were 28.3 nM, 118 nM and 649 nM, respectively.

B11: Example 1027 (peptide)
chain: YXQGTFTSDXSQXLDXKAQXAFIEXLIEGGPSSGEPPPSGSEE
modifications: Aib, 4Pal, αMeL, Orn, Me4Pal, αMeY; lipidated Lys; C-terminal amide; synthetic construct; SITE 2: note = 2-Aminoisobutyric Acid; SITE 10: note = 3-(4-Pyridyl)-L-alanine; SITE 13: note = alpha-methyl-leucine; SITE 16: note = L-ornithine; SITE 17: note = Lysine is chemically modified through conjugation of the epsilon-amino group of the Lysine side chain with (gamma-Gl)
Turning to B11, the Relative cAMP EC50 in assay [1] came out at 0.208 nM; in assay [2], 1.23 nM; in assay [3], 4.99 nM. Besides, the figures for the cAMP Rel EC50, nM (1% HSA) in assay [1], in assay [2] and in assay [3] were 58.1 nM, 252 nM and 1470 nM, respectively.

B12: Example 1041 (peptide)
chain: YXQGTFTSDXSQXLDXKAQXAFIEXLIEGGPSSGAPPPSGSEE
modifications: Aib, 4Pal, Orn, Me4Pal, αMeY; acylated lysine; amide; synthetic construct; SITE 2: note = 2-Aminoisobutyric Acid; SITE 10: note = 3-(4-Pyridyl)-L-alanine; SITE 13: note = alpha-methyl-leucine; SITE 16: note = L-ornithine; SITE 17: note = Lysine is chemically modified through conjugation of the epsilon-amino group of the Lysine side chain with (2-[2-(2-
Regarding B12, the cAMP Rel EC50, nM (1% HSA) in assay [1] turned out to be 75.7 nM; in assay [2], 316 nM; in assay [3] it was 1720 nM.
